We go through 2 molecules from patent US20230407373A1 (priority 2020, published 2023).

Like-named read-outs stand apart in the source and are kept apart here.

What all share (assay type): binding
The subject of one assay is gRNA of HCoV-OC43. To be noted: for target (spectral count) / background (spectral count): type g_36_m, 36 hpi, Probe I; for target (spectral count): HCoV-OC43-infected HCT-8 cells; for background (spectral count): uninfected-probe control; for target (spectral count, OC43 Probe I RNP capture) / background (spectral count, no-probe control): type n_48_v: 48 hours post-infection; for target (spectral count, OC43 Probe I RNP capture): infected cells, unweighted spectral count; for background (spectral count, no-probe control): no-probe control on infected cells.

The subject of a further assay is HCoV-OC43 gRNA and sgRNA. To be noted: for target (unweighted spectral count, OC43 Probe II capture): type n_36_v, FDR<10%; for target (unweighted spectral count, OC43 Probe II capture) / target (unweighted spectral count): tested against no-probe control; for target (unweighted spectral count): OC43 Probe II, infected cells; for target (unweighted spectral count, OC43 Probe II) / background (unweighted spectral count, no-probe control): type n_48_v, 48 hpi; for target (unweighted spectral count, OC43 Probe II): OC43 Probe II capture on infected cells; for background (unweighted spectral count, no-probe control): no-probe control on infected cells.

Assay [1] concerns SARS-CoV-2 gRNA and sgRNAs. To be noted: for target (unweighted spectral count in RNP capture): Probe II capture, LC-MS/MS LFQ; for background (unweighted spectral count in control): no-probe control pull-down, used as background for Probe II.
The next assay concerns SARS-CoV-2 gRNA. To be noted: […]; LC-MS/MS; Probe I sample (first 199 lines of Table 2).

B1: CNBP: host protein, UniProt P62633 (protein, UniProt P62633 2-177, looked up)
CCHC-type zinc finger nucleic …: SSNECFKCGRSGHWARECPTGGGRGRGMRSRGRGGFTSDRGFQFVSSSLPDICYRCGESGHLAKDCDLQEDACYNCGRGGHIAKDCKEPKREREQCCYNCGKPGHLARDCDHADEQKCYSCGEFGHIQKDCTKVKCYRCGETGHVAINCSKTSEVNCYRCGESGHLARECTIEATA
Consider B1, for which, in the assay on gRNA of HCoV-OC43, the “target (spectral count)” value was determined as 15; the “background (spectral count)” value is recorded as 2; the “target (spectral count, OC43 Probe I RNP capture)” value is given as 22; the “background (spectral count, no-probe control)” value amounted to 2. Further, the “target (unweighted spectral count, OC43 Probe II capture)” value with HCoV-OC43 gRNA and sgRNA (36 hpi) is given as 14. Also, in the assay with HCoV-OC43 gRNA and sgRNA (12 hpi (type n_12_v)), the “target (unweighted spectral count)” value turned out to be 5. For the same molecule, the “target (unweighted spectral count)” value with HCoV-OC43 gRNA and sgRNA (24 hpi (type n_24_v)) came out at 12. Moreover, in the assay with HCoV-OC43 gRNA and sgRNA, the “target (unweighted spectral count, OC43 Probe II)” value worked out at 19 and the “background (unweighted spectral count, no-probe control)” value is listed as 2. In assay [1], the “target (unweighted spectral count in RNP capture)” value was found to be 44 and the “background (unweighted spectral count in control)” value came out at 1. Moreover, in the assay on SARS-CoV-2 gRNA, the “target (unweighted spectral count of the protein in the RNP capture)” value is reported as 74.

B2: PSPC1: host protein, UniProt Q8WXF1 (protein, UniProt Q8WXF1 1-523, looked up)
Paraspeckle component 1: MMLRGNLKQVRIEKNPARLRALESAVGESEPAAAAAMALALAGEPAPPAPAPPEDHPDEEMGFTIDIKSFLKPGEKTYTQRCRLFVGNLPTDITEEDFKRLFERYGEPSEVFINRDRGFGFIRLESRTLAEIAKAELDGTILKSRPLRIRFATHGAALTVKNLSPVVSNELLEQAFSQFGPVEKAVVVVDDRGRATGKGFVEFAAKPPARKALERCGDGAFLLTTTPRPVIVEPMEQFDDEDGLPEKLMQKTQQYHKEREQPPRFAQPGTFEFEYASRWKALDEMEKQQREQVDRNIREAKEKLEAEMEAARHEHQLMLMRQDLMRRQEELRRLEELRNQELQKRKQIQLRHEEEHRRREEEMIRHREQEELRRQQEGFKPNYMENREQEMRMGDMGPRGAINMGDAFSPAPAGNQGPPPMMGMNMNNRATIPGPPMGPGPAMGPEGAANMGTPMMPDNGAVHNDRFPQGPPSQMGSPMGSRTGSETPQAPMSGVGPVSGGPGGFGRGSQGGNFEGPNKRRRY
B2: in the assay on gRNA of HCoV-OC43, the “target (spectral count)” value stood at 12; the “background (spectral count)” value is reported as 1; the “target (spectral count, OC43 Probe I RNP capture)” value is recorded as 20; the “background (spectral count, no-probe control)” value amounted to 1. Further, the “target (unweighted spectral count, OC43 Probe II capture)” value with HCoV-OC43 gRNA and sgRNA (36 hpi) amounted to 14. In addition, in the assay on HCoV-OC43 gRNA and sgRNA (12 hpi (type n_12_v)), the “target (unweighted spectral count)” value is 4. In the assay with HCoV-OC43 gRNA and sgRNA (24 hpi (type n_24_v)), the “target (unweighted spectral count)” value came out at 8. Besides, in the assay with HCoV-OC43 gRNA and sgRNA, the “target (unweighted spectral count, OC43 Probe II)” value amounted to 14 and the “background (unweighted spectral count, no-probe control)” value came out at 1. For the same molecule, the “target (spectral count)” value in the assay on HCoV-OC43 gRNA and sgRNA (type s_36_m, HCoV-OC43-infected HCT-8 cells, 36 hpi, Probe II) is given as 14. Further, the “background (spectral count)” value with HCoV-OC43 gRNA and sgRNA (type s_36_m, uninfected-probe control, 36 hpi, Probe II) is listed as 1. In assay [1], the “target (unweighted spectral count in RNP capture)” value came out at 10 and the “background (unweighted spectral count in control)” value amounted to 1. The “target (unweighted spectral count of the protein in the RNP capture)” value in the assay on SARS-CoV-2 gRNA is reported as 7.
